From US20260266848A1, “COMPOSITIONS AND METHODS FOR DIAGNOSING AND TREATING DYSTONIA” (Duke University, priority 2023, published 2026)

Columns and labels:
[1] = system: WT MEF EVs; assay: Quantitative LC-MS/MS proteomics of EVs from ISRIB-treated WT MEF cultures; type: cell-based, mouse; design: key to ISRIB and DYT Parallel Direction / ISRIB and DYT Parallel Direction, Ctdsp1 / ISRIB and DYT Parallel Direction, Pcdh19 / ISRIB and DYT Parallel Direction, Tspan7 / ISRIB and DYT Parallel Direction, Myo1e / ISRIB and DYT Parallel Direction, Plpp3 / ISRIB and DYT Parallel Direction, Sh3bp4 / ISRIB and DYT Parallel Direction, Dnajc7 / ISRIB and DYT Parallel Direction, Drg1 / ISRIB and DYT Parallel Direction, Maea: YES = protein abundance effect similar to DYT/WT; details: EV protein abundance; for WT + ISRIB/WT Cohen's d: ISRIB-treated WT vs WT; for ISRIB and DYT Parallel Direction: WT + ISRIB vs WT, direction compared with DYT/WT
[2] = system: DYT-TOR1A MEF EVs; assay: Quantitative LC-MS/MS proteomics of EVs from drug-treated DYT-TOR1A MEF cultures (ritonavir, salubrinal); type: cell-based, mouse; design: key to RTV Corrective Direction / RTV Corrective Direction, Grwd1 / RTV Corrective Direction, Srrm2 / RTV Corrective Direction, Rbm17 / RTV Corrective Direction, Dcaf8 / RTV Corrective Direction, Edil3 / RTV Corrective Direction, Timp3 / RTV Corrective Direction, Heatr3 / RTV Corrective Direction, Brd4 / RTV Corrective Direction, P3h4 / RTV Corrective Direction, Pacsin3 / RTV Corrective Direction, Naa50 / RTV Corrective Direction, Lpar6 / RTV Corrective Direction, Ndrg1 / RTV Corrective Direction, Kntc1 / RTV Corrective Direction, Cdk11b / RTV Corrective Direction, Sumo1 / RTV Corrective Direction, Lsm4 / RTV Corrective Direction, Hmga2 / RTV Corrective Direction, Cstf1 / RTV Corrective Direction, Tes / RTV Corrective Direction, Sbno1 / RTV Corrective Direction, Unc119b / RTV Corrective Direction, Cfdp1 / RTV Corrective Direction, Sec61b: YES = protein abundance effect opposite to DYT/WT; details: EV protein abundance; for DYT + RTV/DYT Cohen's d: ritonavir (RTV)-treated DYT vs DYT; for RTV Corrective Direction: DYT + RTV (ritonavir) vs DYT, direction compared with DYT/WT

B1: Wbp2 (protein, UniProt P97765 1-261, looked up)
WW domain-binding protein 2: MALNKNHSEGGGVIVNNTESILMSYDHVELTFNDMKNVPEAFKGTKKGTVYLTPYRVIFLSKGKDAMQSFMMPFYLMKDCEIKQPVFGANFIKGIVKAEAGGGWEGSASYKLTFTAGGAIEFGQRMLQVASQASRGEVPNGAYGYPYMPSGAYVFPPPVANGMYPCPPGYPYPPPPPEFYPGPPMMDGAMGYVQPPPPPYPGPMEPPVSGPSAPATPAAEAKAAEAAASAYYNPGNPHNVYMPTSQPPPPPYYPPEDKKTQ
Q: B1 was tested. Which “WT + ISRIB/WT Cohen's d” value [1] did it give?
A: The value was −1.50.

Q: And the “ISRIB and DYT Parallel Direction” value [1]?
A: The value was “YES”.

Q: And the “DYT + RTV/DYT Cohen's d” value [2]?
A: Its value is −0.89.

B2: Canx (protein, UniProt P35564 21-591, looked up)
Calnexin: HDGHDDDAIDIEDDLDDVIEEVEDSKSKSDASTPPSPKVTYKAPVPTGEVYFADSFDRGSLSGWILSKAKKDDTDDEIAKYDGKWEVDEMKETKLPGDKGLVLMSRAKHHAISAKLNKPFLFDTKPLIVQYEVNFQNGIECGGAYVKLLSKTAELSLDQFHDKTPYTIMFGPDKCGEDYKLHFIFRHKNPKTGVYEEKHAKRPDADLKTYFTDKKTHLYTLILNPDNSFEILVDQSVVNSGNLLNDMTPPVNPSREIEDPEDRKPEDWDERPKIADPDAVKPDDWDEDAPSKIPDEEATKPEGWLDDEPEYIPDPDAEKPEDWDEDMDGEWEAPQIANPKCESAPGCGVWQRPMIDNPNYKGKWKPPMIDNPNYQGIWKPRKIPNPDFFEDLEPFKMTPFSAIGLELWSMTSDIFFDNFIISGDRRVVDDWANDGWGLKKAADGAAEPGVVLQMLEAAEERPWLWVVYILTVALPVFLVILFCCSGKKQSNAMEYKKTDAPQPDVKDEEGKEEEKNKRDEEEEEEKLEEKQKSDAEEDGVTGSQDEEDSKPKAEEDEILNRSPRNRKPRRE
Q: B2 was tested. Which “WT + ISRIB/WT Cohen's d” value [1] did it give?
A: Its value is 0.64.

Q: And the “DYT + RTV/DYT Cohen's d” value [2]?
A: The value was −0.16.

B3: Idua (protein, UniProt P35475 28-653, looked up)
Alpha-L-iduronidase: APHLVHVDAARALWPLRRFWRSTGFCPPLPHSQADQYVLSWDQQLNLAYVGAVPHRGIKQVRTHWLLELVTTRGSTGRGLSYNFTHLDGYLDLLRENQLLPGFELMGSASGHFTDFEDKQQVFEWKDLVSSLARRYIGRYGLAHVSKWNFETWNEPDHHDFDNVSMTMQGFLNYYDACSEGLRAASPALRLGGPGDSFHTPPRSPLSWGLLRHCHDGTNFFTGEAGVRLDYISLHRKGARSSISILEQEKVVAQQIRQLFPKFADTPIYNDEADPLVGWSLPQPWRADVTYAAMVVKVIAQHQNLLLANTTSAFPYALLSNDNAFLSYHPHPFAQRTLTARFQVNNTRPPHVQLLRKPVLTAMGLLALLDEEQLWAEVSQAGTVLDSNHTVGVLASAHRPQGPADAWRAAVLIYASDDTRAHPNRSVAVTLRLRGVPPGPGLVYVTRYLDNGLCSPDGEWRRLGRPVFPTAEQFRRMRAAEDPVAAAPRPLPAGGRLTLRPALRLPSLLLVHVCARPEKPPGQVTRLRALPLTQGQLVLVWSDEHVGSKCLWTYEIQFSQDGKAYTPVSRKPSTFNLFVFSPDTGAVSGSYRVRALDYWARPGPFSDPVPYLEVPVPRGPPSPGNP
Q: What does the source list for B3?
A: WT + ISRIB/WT Cohen's d [1]: 0.52; DYT + RTV/DYT Cohen's d [2]: −0.08

B4: Lnpep (protein, UniProt Q8C129 1-1025, looked up)
Leucyl-cystinyl aminopeptidase: MESFTNDRLQLPRNMIENSMFEEEPDVVDLAKEPCLHPLEPDEVEYEPRGSRLLVRGLGEHEMDEDEEDYESSAKLLGMSFMNRSSGLRNSAAGYRQSPDGTCSLPSARTLVICVFVIVVAVSVIMVIYLLPRCTFTKEGCHKTNQSAELIQPVATNGKVFPWAQIRLPTAIIPLCYELSLHPNLTSMTFRGSVTISLQALQDTRDIILHSTGHNISRVTFMSAVSSQEKQVEILEYPYHEQIAVVAPEPLLTGHNYTLKIEYSANISNSYYGFYGITYTDKSNEKKYFAATQFEPLAARSAFPCFDEPAFKATFIIKITRNEHHTALSNMPKKSSVPAEEGLIQDEFSESVKMSTYLVAFIVGEMRNLSQDVNGTLVSVYAVPEKIGQVHHALDTTIKLLEFYQTYFEIQYPLKKLDLVAIPDFEAGAMENWGLLTFREETLLYDNATSSVADRKLVTKIIAHELAHQWFGNLVTMQWWNDLWLNEGFATFMEYFSVEKIFKELNSYEDFLDARFKTMRKDSLNSSHPISSSVQSSEQIEEMFDSLSYFKGASLLLMLKSYLSEDVFRHAVILYLHNHSYAAIQSDDLWDSFNEVTDKTLDVKKMMKTWTLQKGFPLVTVQRKGTELLLQQERFFLRMQPESQPSDTSHLWHIPISYVTDGRNYSEYRSVSLLDKKSDVINLTEQVQWVKVNSNMTGYYIVHYAHDDWTALINQLKRNPYVLSDKDRANLINNIFELAGLGKVPLRMAFDLIDYLKNETHTAPITEALFQTNLIYNLLEKLGHMDLSSRLVARVHKLLQNQIQQQTWTDEGTPSMRELRSALLEFACAHSLENCTTMATNLFDSWMASNGTQSLPTDVMVTVFKVGARTEKGWLFLFSMYSSMGSEAEKNKILEALASSEDVHKLYWLMKSSLDGDIIRTQKLSLIIRTVGRHFPGHLLAWDFVKENWNKLVHKFHLGSYTIQSIVAGSTHLFSTKTHLSEVQAFFENQSEATLKLRCVQEALEVIQLNIQWMVRNLKTLSQWL
Q: B4 was tested. Which “WT + ISRIB/WT Cohen's d” value [1] did it give?
A: Its value is −1.24.

Q: What about the “ISRIB and DYT Parallel Direction” value [1] of the same molecule?
A: Its value is “YES”.

Q: And the “DYT + RTV/DYT Cohen's d” value [2]?
A: Its value is −0.39.

B5: Cul5 (protein, UniProt Q9D5V5 1-780, looked up)
Cullin-5: MATSNLLKNKGSLQFEDKWDFMHPIVLKLLRQESVTKQQWFDLFSDVHAVCLWDDKGSSKIHQALKEDILEFIKQAQARVLSHQDDTALLKAYIVEWRKFFTQCDILPKPFCQLEVTLLGKQSSNKKSNMEDSIVRKLMLDTWNESIFSNIKNRLQDSAMKLVHAERLGEAFDSQLVIGVRESYVNLCSNPEDKLQIYRDNFEKAYLDSTERFYRTQAPSYLQQNGVQNYMKYADAKLKEEEKRALRYLETRRECNSVEALMECCVNALVTSFKETILAECQGMIKRNETEKLHLMFSLMDKVPNGIEPMLKDLEEHIISAGLADMVAAAETITTDSEKYVEQLLTLFNRFSKLVKEAFQDDPRFLTARDKAYKAVVNDATIFKLELPLKQKGVGLKTQPESKCPELLANYCDMLLRKTPLSKKLTSEEIEAKLKEVLLVLKYVQNKDVFMRYHKAHLTRRLILDISADSEIEENMVEWLREVGMPADYVNKLARMFQDIKVSEDLNQAFKEMHKNNKLALPADSVNIKILNAGAWSRSSEKVFVSLPTELEDLIPEVEEFYKKNHSGRKLHWHHLMSNGIITFKNEVGQYDLEVTTFQLAVLFAWNQRPREKISFENLKLATELPDAELRRTLWSLVAFPKLKRQVLLYDPQVNSPKDFTEGTLFSVNQDFSLIKNAKVQKRGKINLIGRLQLTTERMREEENEGIVQLRILRTQEAIIQIMKMRKKISNAQLQTELVEILKNMFLPQKKMIKEQMEWLIEHRYIRRDEADINTFIYMA
Q: For B5, which “WT + ISRIB/WT Cohen's d” value [1] is on record?
A: Its value is −3.39.

Q: And the “ISRIB and DYT Parallel Direction” value [1]?
A: The value was “YES”.

Q: And the “RTV Corrective Direction” value [2]?
A: The value was “YES”.

Q: What about the “DYT + RTV/DYT Cohen's d” value [2] of the same molecule?
A: Its value is 13.04.

B6: Exoc4 (protein, UniProt O35382 2-975, looked up)
Exocyst complex component 4: AAEAAGGKYRSTVSKSKDPSGLLISVIRTLSTSDDVEDRENEKGRLEEAYEKCDRDLDELIVQHYTELTTAIRTYQSITERITNSRNKIKQVKENLLSCKMLLHCKRDELRKLWIEGIEHKHVLNLLDEIENIKQVPQKLEQCMASKHYLSATDMLVSAVESLEGPLLQVEGLSDLRLELHSKKMNLHLVLIEELHRHLYIKSTSRVVQRNKEKGKMSSHGKDPSPGPLIDVSNIPTPRKFLDASQYSAAGGSSVREMNLQDVKEDLECDPEENSTLFMGILIQGLARLKKIPETVKAIKERLEQELKQIVKRSTTQVADSAYQRGESLTVDNQPRLLLELLELLFDKFNAVATAHSVVLGYLQDSVGTQLTQQEEIKLYDMADVWVKIQDVLQMLLTEYLDMKNTRTASEPSAQLSYASTGREFAAFFAKKKPQRPKNSLFKFESSSHAISMSAYLREQRRELYSRSGELQGGPDDNLIEGGGTKFVCKPGARNITVIFHPLLRFIQEIEHALGLGPAKQCPLREFLTVYIKSIFLNQVLAEINKEIEGVTKTSDPLKILANADTMKVLGVQRPLLQSTIIVEKTVQDLMNLMHDLSAYSDQFLNMVCVKLQEYKDTCSTAYRGIVQSEEKLVISASWAKDDDISRLLKSLPNWTNMAQPKQLRPKREEEEDFIRAAFGKESEVLIGNLGDKLIPPQDILRDVSDLKALANMHESLEWLAGRTKSAFSNLSTSQMLSPAQESHVNMDLPPVSEQIMQTLSELAKTFQDMADRCLLVLHLEVRVHCFHYLIPLAKEGNYAIVANVESMDYDPLVVKLNKDISAMEEAMSASLQQHKFQYIFEGLGHLISCILINGAQYFRRISESGIKKMCRNIFVLQQNLTNITMSREADLDFARQYYEMLYNTADELLNLVVDQGVKYTELEYIHALTLLHRSQTGVGDQTTQNTRLQRLKEIICEQAAIKQATKDKKITTV
Q: Which results are given for B6?
A: WT + ISRIB/WT Cohen's d [1]: −1.51; ISRIB and DYT Parallel Direction [1]: YES; RTV Corrective Direction [2]: YES; DYT + RTV/DYT Cohen's d [2]: 7.70

B7: Serpinf1 (protein, UniProt P97298 20-417, looked up)
Pigment epithelium-derived …: QNVPSSSEGSPVPDSTGEPVEEEDPFFKVPVNKLAAAVSNFGYDLYRLRSSASPTGNVLLSPLSVATALSALSLGAEHRTESVIHRALYYDLITNPDIHSTYKELLASVTAPEKNLKSASRIVFERKLRVKSSFVAPLEKSYGTRPRILTGNPRVDLQEINNWVQAQMKGKIARSTREMPSALSILLLGVAYFKGQWVTKFDSRKTTLQDFHLDEDRTVRVPMMSDPKAILRYGLDSDLNCKIAQLPLTGSMSIIFFLPLTVTQNLTMIEESLTSEFIHDIDRELKTIQAVLTVPKLKLSFEGELTKSLQDMKLQSLFESPDFSKITGKPVKLTQVEHRAAFEWNEEGAGSSPSPGLQPVRLTFPLDYHLNQPFLFVLRDTDTGALLFIGRILDPSST
Q: For B7, which “WT + ISRIB/WT Cohen's d” value [1] is on record?
A: The value was −1.83.

Q: What about the “DYT + RTV/DYT Cohen's d” value [2] of the same molecule?
A: Its value is 1.47.
